According to US20170327535A1:

Columns and labels:
[1] = molecular target: aTNFa-Fab (Fab fragment of Infliximab, Remicade); test: SPR Biacore 3000, Fab on CM5 chip, peptide analyte, 1:1 fit
[2] = molecular target: aRSV-Fab (Fab fragment of Palivizumab, Synagis); test: as above
[3] = molecular target: aIgE-Fab (Fab fragment of Omalizumab, Xolair); test: as above
[4] = molecular target: aTNFa-Fab (Fab fragment of Infliximab, Remicade); test: dynamic binding capacity on a 1 mL-gel column, 1 mg/mL aTNFa-Fab at […], 55% breakthrough

Substance	Ka [1] [M⁻¹]	Ka [2] [M⁻¹]	Ka [3] [M⁻¹]	55% DBC [4] [mg/mL/gel]
LB3t-Wild.1d (B3 domain of PpL312 with deletion of the N-terminal region)	–	–	3.77e+08	–
LB5t-Wild.1d (B5 domain of Protein L of Peptostreptococcus magnus 312 strain with deletion of the N-terminal region, single domain)	700000	–	4.43e+08	–
LC1t-Wild.1d (C1 domain of PpL3316 with deletion of the N-terminal region)	–	2.3e+06	2.71e+07	–
LC2t-Wild.1d (C2 domain of PpL3316 with deletion of the N-terminal region)	–	9.2e+06	–	–

Second part, the substance after the results:

Ka [1] [M⁻¹]	Ka [2] [M⁻¹]	Ka [3] [M⁻¹]	55% DBC [4] [mg/mL/gel]	Substance
30000	4.4e+06	1.12e+09	–	LB1t-Wild.1d (B1 domain of PpL312 with deletion of the N-terminal region)
–	1e+06	–	–	LB2t-Wild.1d (B2 domain of PpL312 with deletion of the N-terminal region)
300000	1.38e+07	1.08e+09	–	LB4t-Wild.1d (B4 domain of PpL312 with deletion of the N-terminal region)
–	8.7e+06	–	–	LC3t-Wild.1d (C3 domain of PpL3316 with deletion of the N-terminal region)
–	1.93e+07	4.18e+09	–	LC4t-Wild.1d (C4 domain of PpL3316 with deletion of the N-terminal region)
–	–	–	4.8	commercially available Protein L carrier (HiTrap Protein L, GE Healthcare Bioscience)
